Changes are numbered by the printed parent chain. One block for each molecule: values may come before it.
Experiments:
[1] = target: macaque CD45RC (cynomolgus macaque); test: flow cytometry, cynomolgus macaque PBMC, CD3- cells
[2] = target: macaque CD45RC (cynomolgus macaque); test: flow cytometry, cynomolgus macaque PBMC, CD3+ cells (p-1488)
[3] = target: T1, human CD45RC (human, UniProt P08575 26-1306); test: flow cytometry, human whole blood; pDC [3]
T1 construct: In flow cytometry the protein is on human PBMC (which may also carry other CD45 isoforms with the C determinant); in the SPR assay it is in solubilised membranes of CD45RC-high PBMC or of CHO cells transfected with CD45RC; also called hCD45RC
T1 sequence: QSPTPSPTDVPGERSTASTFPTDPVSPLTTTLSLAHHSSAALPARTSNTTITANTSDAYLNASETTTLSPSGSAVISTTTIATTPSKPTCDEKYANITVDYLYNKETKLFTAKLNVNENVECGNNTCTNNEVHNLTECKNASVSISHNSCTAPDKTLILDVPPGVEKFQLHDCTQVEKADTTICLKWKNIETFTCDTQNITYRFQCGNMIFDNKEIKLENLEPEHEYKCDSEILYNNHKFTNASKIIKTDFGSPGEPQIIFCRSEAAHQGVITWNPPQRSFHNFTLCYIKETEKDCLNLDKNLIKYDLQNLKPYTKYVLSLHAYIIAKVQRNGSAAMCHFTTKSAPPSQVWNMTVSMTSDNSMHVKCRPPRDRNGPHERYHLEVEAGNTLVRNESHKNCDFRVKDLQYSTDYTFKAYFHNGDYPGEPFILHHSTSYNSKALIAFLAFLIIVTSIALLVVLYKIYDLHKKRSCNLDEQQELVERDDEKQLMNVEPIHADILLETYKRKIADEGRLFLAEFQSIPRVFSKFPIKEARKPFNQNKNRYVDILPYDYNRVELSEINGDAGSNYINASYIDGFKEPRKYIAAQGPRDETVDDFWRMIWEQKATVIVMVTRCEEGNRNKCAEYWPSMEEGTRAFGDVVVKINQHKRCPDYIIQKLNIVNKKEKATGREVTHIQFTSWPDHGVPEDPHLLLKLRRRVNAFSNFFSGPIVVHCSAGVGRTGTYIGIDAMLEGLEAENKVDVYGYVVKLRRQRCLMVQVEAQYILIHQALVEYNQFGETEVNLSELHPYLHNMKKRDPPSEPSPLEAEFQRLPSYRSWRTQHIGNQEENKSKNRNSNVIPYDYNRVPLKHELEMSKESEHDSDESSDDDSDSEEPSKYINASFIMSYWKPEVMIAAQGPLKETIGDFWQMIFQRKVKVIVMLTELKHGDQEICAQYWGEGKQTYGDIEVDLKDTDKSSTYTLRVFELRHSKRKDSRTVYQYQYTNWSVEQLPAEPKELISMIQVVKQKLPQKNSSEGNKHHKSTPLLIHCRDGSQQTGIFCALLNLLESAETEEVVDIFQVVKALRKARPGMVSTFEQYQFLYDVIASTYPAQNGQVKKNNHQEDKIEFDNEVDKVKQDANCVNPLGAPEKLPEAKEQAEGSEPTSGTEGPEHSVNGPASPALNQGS

[4] = target: T1, human CD45RC; test: flow cytometry, human whole blood; iNKT [2]
[5] = target: T1, human CD45RC; test: flow cytometry, human whole blood; Neutrophils [3]
[6] = target: T1, human CD45RC; test: flow cytometry, human whole blood; NKT [2]
[7] = target: T1, human CD45RC; test: flow cytometry, human whole blood; ILC2 [2]
[8] = target: T1, human CD45RC; test: flow cytometry, human whole blood; B cells [1]
[9] = target: T1, human CD45RC; test: flow cytometry, human whole blood; T cells [1]
[10] = target: T1, human CD45RC; test: flow cytometry, human whole blood; CD4+ Treg (CD25+CD127-) [1]
[11] = target: T1, human CD45RC; test: flow cytometry, human whole blood; CD3+ TCRgd [1]
[12] = target: T1, human CD45RC; test: flow cytometry, human whole blood; mDC [3]
[13] = target: T1, human CD45RC; test: flow cytometry, human whole blood; ILC1 [2]
[14] = target: T1, human CD45RC; test: flow cytometry, human whole blood; NK [1]
[15] = target: T1, human CD45RC; test: flow cytometry, human whole blood; Monocytes CD14highCD16- [2]
[16] = target: T1, human CD45RC; test: flow cytometry, human whole blood; CD4+ T [1]
[17] = target: T1, human CD45RC; test: flow cytometry, human whole blood; Basophils [3]
[18] = target: T1, human CD45RC; test: flow cytometry, human whole blood; CD3+ TCRab [1]
[19] = target: T1, human CD45RC; test: flow cytometry, human whole blood; Monocytes CD14intCD16+ [3]
[20] = target: T1, human CD45RC; test: flow cytometry, human whole blood; ILC3 [2]
[21] = target: T1, human CD45RC; test: flow cytometry, human whole blood; Monocytes CD14+ [2]
[22] = target: T1, human CD45RC; test: flow cytometry, human whole blood; CD8+ T [1]
[23] = target: T1, human CD45RC; test: flow cytometry, human whole blood; Eosinophils [3]
[24] = target: T1, human CD45RC; test: flow cytometry, human whole blood; MAIT [2]
[25] = target: macaque CD45RC (cynomolgus macaque); test: flow cytometry, cynomolgus macaque PBMC, CD3+ cells (p-1488); 10 µg/ml (p-1486)
[26] = target: macaque CD45RC (cynomolgus macaque); test: flow cytometry, cynomolgus macaque PBMC, CD3- cells; 10 µg/ml (p-1486)
[27] = target: T1, human CD45RC; test: SPR (BIAcore 3000 / T200), ABIS-45RC immobilised on CM5 chip, solubilised membranes of CD45RC-high PBMC or CD45RC-transfected CHO cells as analyte, 25 C, single cycle kinetics
Source text: Briefly, 1×10⁷ CD45RC^high PBMCs or CHO cells expressing CD45RC after plasmid transfection were solubilized using the Mem-PER membrane isolation kit (Thermo-fisher).

- % of cells CD45RC+ [1]: 2.7%
- % of cells CD45RC+ [2]: 4.37%
Molecule: Isotype (antibody)

- % of cells CD45RC+ [25]: 17.2%
- % of cells CD45RC+ [26]: 75.6%
B1: Anti-45RC Variant A (antibody, human IgG1, kappa, V domains shown)
VH: QVQLVQSGAEVKKPGASVKVSCKASGYTFTNYYIGWVRQAPGQGLEWIGDIFPGGDYANSNEKFKGRVTLTADTSISTAYMELSRLRSDDTVVYYCVRRNFDYWGQGTLVTVSS
VL: DIQLTQSPSFLSASVGDRVTITCSASSSVSYMHWFQQKPGKAPKLWIYNTSNLPSGVPSRFSGSGSGTEYTLTISSLQPEDFATYYCQQRSSYPLTFGGGTKVEIKR

- % of cells CD45RC+ [25]: 15.2%
- % of cells CD45RC+ [26]: 82.6%
B2: Anti-45RC Variant A3 (antibody, human IgG1, kappa, V domains shown)
VH: B1 VH with D56G, A58T, S60Y, N61A, K65Q
VL: B1 VL with S24R, F35Y

More lines, now with the values behind:

Molecule: MT2 (antibody)
- % of cells CD45RC high [3]: 1.84%
- % of cells CD45RC low [3]: 97.9%
- % of cells CD45RC negative [3]: 0.23%
- % of cells CD45RC high [4]: 24.1%
- % of cells CD45RC low [4]: 61.6%
- % of cells CD45RC negative [4]: 14.3%
- % of cells CD45RC high [5]: 0.014%
- % of cells CD45RC low [5]: 19.3%
- % of cells CD45RC negative [5]: 80.7%
- % of cells CD45RC high [6]: 34.4%
- % of cells CD45RC low [6]: 54.2%
- % of cells CD45RC negative [6]: 11.4%
- % of cells CD45RC high [7]: 45%
- % of cells CD45RC low [7]: 49.5%
- % of cells CD45RC negative [7]: 5.5%
- % of cells CD45RC high [8]: 79.9%
- % of cells CD45RC low [8]: 20.1%
- % of cells CD45RC negative [8]: 0%
- % of cells CD45RC high [9]: 7.43%
- % of cells CD45RC low [9]: 49.7%
- % of cells CD45RC negative [9]: 42.9%
- % of cells CD45RC high [10]: 3.52%
- % of cells CD45RC low [10]: 19.8%
- % of cells CD45RC negative [10]: 76.7%
- % of cells CD45RC high [11]: 1.93%
- % of cells CD45RC low [11]: 90.6%
- % of cells CD45RC negative [11]: 7.46%
- % of cells CD45RC high [12]: 0%
- % of cells CD45RC low [12]: 14.3%
- % of cells CD45RC negative [12]: 85.7%
- % of cells CD45RC high [13]: 9.3%
- % of cells CD45RC low [13]: 27.5%
- % of cells CD45RC negative [13]: 63.2%
- % of cells CD45RC high [14]: 28.6%
- % of cells CD45RC low [14]: 70.4%
- % of cells CD45RC negative [14]: 1%
- % of cells CD45RC high [15]: 0.091%
- % of cells CD45RC low [15]: 38.3%
- % of cells CD45RC negative [15]: 61.6%
- % of cells CD45RC high [16]: 3.64%
- % of cells CD45RC low [16]: 47.2%
- % of cells CD45RC negative [16]: 49.2%
- % of cells CD45RC high [17]: 0%
- % of cells CD45RC low [17]: 7.3%
- % of cells CD45RC negative [17]: 92.7%
- % of cells CD45RC high [18]: 8.34%
- % of cells CD45RC low [18]: 46.2%
- % of cells CD45RC negative [18]: 45.5%
- % of cells CD45RC high [19]: 6.45%
- % of cells CD45RC low [19]: 87.7%
- % of cells CD45RC negative [19]: 5.87%
- % of cells CD45RC high [20]: 50%
- % of cells CD45RC low [20]: 50%
- % of cells CD45RC negative [20]: 0%
- % of cells CD45RC high [21]: 0.43%
- % of cells CD45RC low [21]: 43.9%
- % of cells CD45RC negative [21]: 55.6%
- % of cells CD45RC high [22]: 38.8%
- % of cells CD45RC low [22]: 39.7%
- % of cells CD45RC negative [22]: 21.5%
- % of cells CD45RC high [23]: 0.47%
- % of cells CD45RC low [23]: 90.5%
- % of cells CD45RC negative [23]: 9.08%
- % of cells CD45RC high [24]: 5.89%
- % of cells CD45RC low [24]: 71%
- % of cells CD45RC negative [24]: 23.2%

B3: Anti-45RC Variant A1 (antibody, human IgG1, kappa, V domains shown)
VH: B1 VH with A58T, S60Y, N61A, K65Q
VL: B1 VL with S24R, F35Y
- % of cells CD45RC+ [25]: 15.6%
- % of cells CD45RC+ [26]: 76.3%

B4: ABIS-45RC (antibody, mouse IgG1, kappa, V domains shown)
VH: QVQLQQSGAELVRPGTSVKMSCKAAGYTFTNYYIGWVKQRPGHGLEWIGDIFPGGDYANSNEKFKGKATLTADTSSSTAYMQLSSLTSEDSAIYYCVRRNFDYWGQGTTLTVSS
VL: QIVLTQSPTIMSASPGEKVTITCSASSSVSYMHWFQQKTGTSPRLWIYNTSNLPSGVPARFSGSGSGTSYSLTISRMEAEDAATYYCQQRSSYPLTFGAGTKLELKR
notes: the variable domains are the same; also called murine ABIS-45RC; murine anti-hCD45RC antibody of the invention
- % of cells CD45RC+ [25]: 26.1%
- % of cells CD45RC+ [26]: 74.1%
- Kd [27]: 50 nM
- koff [27]: 0.0144 s⁻¹
- kon [27]: 291000 M⁻¹ s⁻¹

From patent US20250122300A1 (INSERM INSTITUT NATIONAL DE LA SANT ET DE LA RECHERCHE M …, published 2025)
